According to paper PMC4917820, “Structural basis for autoinhibition and its relief of MOB1 in the Hippo pathway” (Scientific Reports, 2016):
Values belong to the molecule of their own block, whether it stands above or below them.

Tests used:
[1] = molecular target: GST-N-terminal truncated MOB1B, N-terminal 10-residue truncated form (mouse) (UniProt Q8BPB0); test: pull-down; GST-MOB1B and LATS1 proteins (40 μM) mixed 1:1 in 20 mM Tris-HCl (pH 7.5), 0.3 M NaCl, 1 mM DTT, applied to Glutathione Sepharose 4B, washed at 4 °C, eluted with glutathione, SDS-PAGE with Coomassie blue, band intensities
[2] = molecular target: T1, GST-MOB1B, N-terminal 32-residue truncated form (33-216) (mouse, UniProt Q8BPB0 33-216); test: as above; settings: both partners purified
T1 construct: MOB1B, mouse, residues 33-216; also called NΔ32; GST-N-truncated Δ32 MOB1B; source: E. coli; GST fusion, purification of this form not described; not shown: GST, N-terminal, kept
T1 sequence (looked up): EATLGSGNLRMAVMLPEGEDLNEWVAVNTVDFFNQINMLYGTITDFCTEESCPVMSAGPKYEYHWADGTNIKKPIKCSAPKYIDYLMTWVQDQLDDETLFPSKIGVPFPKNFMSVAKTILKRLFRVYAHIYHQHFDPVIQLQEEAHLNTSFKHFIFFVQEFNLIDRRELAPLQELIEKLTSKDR

[3] = molecular target: T2, N-terminal truncated MOB1B (33-216) (mouse, UniProt Q8BPB0 33-216); test: crystal structure; 1:1 molar ratio mixture of MOB1B and LATS1 (621-703) crystallised by vapor diffusion, MES pH 6.5, PEG; settings: both partners purified
T2 construct: MOB1B, mouse, residues 33-216; also called N-terminal 32-residue truncated form; N-truncated MOB1B; source: E. coli, purified (Glutathione Sepharose 4B, HRV 3C digestion, HiTrap Q gradient, Superdex 75pg); not shown: GST, N-terminal, cleaved
T2 sequence (looked up): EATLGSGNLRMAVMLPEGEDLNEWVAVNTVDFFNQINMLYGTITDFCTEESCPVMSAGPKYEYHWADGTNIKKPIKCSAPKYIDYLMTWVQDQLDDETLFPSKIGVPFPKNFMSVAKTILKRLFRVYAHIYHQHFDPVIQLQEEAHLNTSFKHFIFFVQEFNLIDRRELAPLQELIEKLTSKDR

[4] = molecular target: T3, double-mutant T12D/T35D MOB1B (1-216) (mouse, UniProt Q8BPB0 1-216, T12D | T35D); test: as above; settings: both partners purified
T3 construct: MOB1B, mouse, residues 1-216, with T12D and T35D; everywhere else it is T12D/T35D; also called phosphomimic (T12D/T35D) double-mutant; MOB1B(T12/35D); source: E. coli, purified by the same procedure as full-length MOB1B (GST removed); not shown: GST, N-terminal, cleaved
T3 sequence (looked up): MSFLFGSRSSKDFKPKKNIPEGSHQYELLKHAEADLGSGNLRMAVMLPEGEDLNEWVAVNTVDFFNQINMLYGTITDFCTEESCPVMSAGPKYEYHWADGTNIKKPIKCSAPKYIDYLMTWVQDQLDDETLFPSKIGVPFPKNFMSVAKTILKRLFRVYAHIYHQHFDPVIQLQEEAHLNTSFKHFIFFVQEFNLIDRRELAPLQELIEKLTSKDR

B2: NTR domain (residues 604-703) of LATS1 (domain or fragment, mouse, UniProt Q8BYR2 604-703, looked up)
chain: KEKKQITTSPITVRKNKKDEERRESRIQSYSPQAFKFFMEQHVENVLKSHQQRLHRKKQLENEMMRVGLSQDAQDQMRKMLCQKESNYIRLKRAKMDKSM
notes: also called wild-type; source: E. coli BL21 (DE3) Star, resolubilized from the insoluble fraction, purified (Ni-NTA, HiTrap SP, Superdex 75pg)
binding result [2]: binds

B3: NTR domain (604-703) of LATS1, R656A (domain or fragment, mouse, UniProt Q8BYR2 604-703, looked up)
chain: KEKKQITTSPITVRKNKKDEERRESRIQSYSPQAFKFFMEQHVENVLKSHQQALHRKKQLENEMMRVGLSQDAQDQMRKMLCQKESNYIRLKRAKMDKSM
notes: source: E. coli, resolubilized, purified (Ni-NTA, Superdex 75pg)
binding relative to the wild-type [2]: < 20%

B6: NTR domain (604-703) of LATS1, R693A (domain or fragment, mouse, UniProt Q8BYR2 604-703, looked up)
chain: KEKKQITTSPITVRKNKKDEERRESRIQSYSPQAFKFFMEQHVENVLKSHQQRLHRKKQLENEMMRVGLSQDAQDQMRKMLCQKESNYIALKRAKMDKSM
notes: as for B3
binding relative to the wild-type [2]: < 20%

Second part, the molecule after the results:

relative autoinhibition of LATS1 binding (full length 100%, NΔ32 0%) [1]: 66%
Molecule: NTR domain of LATS1 (limits not told for this experiment) (domain or fragment)

binding result [2]: binds
binding result [3]: binds
binding result [4]: binds
B1: NTR domain (residues 621-703) of LATS1 (domain or fragment, mouse, UniProt Q8BYR2 621-703, looked up)
chain: KDEERRESRIQSYSPQAFKFFMEQHVENVLKSHQQRLHRKKQLENEMMRVGLSQDAQDQMRKMLCQKESNYIRLKRAKMDKSM
notes: also called N-terminal regulation (NTR) domain of LATS1; source: E. coli BL21 (DE3) Star, resolubilized from the insoluble fraction, purified (Ni-NTA, HiTrap SP, Superdex 75pg)

binding relative to the wild-type [2]: < 20%
B4: NTR domain (604-703) of LATS1, R696A (domain or fragment, mouse, UniProt Q8BYR2 604-703, looked up)
chain: KEKKQITTSPITVRKNKKDEERRESRIQSYSPQAFKFFMEQHVENVLKSHQQRLHRKKQLENEMMRVGLSQDAQDQMRKMLCQKESNYIRLKAAKMDKSM
notes: as for B3

binding relative to the wild-type [2]: < 10%
B5: NTR domain (604-703) of LATS1, S689E (domain or fragment, mouse, UniProt Q8BYR2 604-703, looked up)
chain: KEKKQITTSPITVRKNKKDEERRESRIQSYSPQAFKFFMEQHVENVLKSHQQRLHRKKQLENEMMRVGLSQDAQDQMRKMLCQKEENYIRLKRAKMDKSM
notes: also called phosphomimetic substitution; source: E. coli, resolubilized, purified (Ni-NTA, Superdex 75pg)
